B1: Transposon Tn7 transposition protein TnsE (Escherichia coli), P05845 (parent)
chain: MVRLATFNDNVQVVHIGHLFRNSGHKEWRIFVWFNPMQERKWTRFTHLPLLSRAKVVNSTTKQINKADRVIEFEASDLQRAKIIDFPNLSSFASVRNKDGAQSSFIYEAETPYSKTRYHIPQLELARSLFLINSYFCRSCLSSTALQQEFDVQYEVERDHLEIRILPSSSFPKGALEQSAVVQLLVWLFSDQDVMDSYESIFRHYQQNREIKNGVESWCFSFDPPPMQGWKLHVKGRSSNEDKDYLVEEIVGLEINAMLPSTTAISHASFQEKEAGDGSTQHIAVSTESVVDDEHLQLDDEETANIDTDTRVIEAEPTWISFSRPSRIEKSRRARKSSQTILEKEEATTSENSNLVSTDEPHLGGVLAAADVGGKQDATNYNSIFANRFAAFDELLSILKTKFACRVLFEETLVLPKVGRSRLHLCKDGSPRVIKAVGVQRNGSEFVLLEVDASDGVKMLSTKVLSGVDSETWRNDFEKIRRGVVKSSLNWPNSLFDQLYGQDGHRGVNHPKGLGELQVSREDMEGWAERVVREQFTH

Variants of: B1
Conditions: with dpo3b_ecoli dnaN

Variant	effect of a mutation on the interaction
MVRLATFNDNVQVVHIGHLFRNSGHKEWRIFVWFNPMQERKWTRFTHLPLLSRAKVVNSTTKQINKADRVIEFEASDLQRAKIIDFPNLSSFASVRNKDGAQSSFIYEAETPYSKTRYHIPQLELARSLALINSYFCRSCLSSTALQQEFDVQYEVERDHLEIRILPSSSFPKGALEQSAVVQLLVWLFSDQDVMDSYESIFRHYQQNREIKNGVESWCFSFDPPPMQGWKLHVKGRSSNEDKDYLVEEIVGLEINAMLPSTTAISHASFQEKEAGDGSTQHIAVSTESVVDDEHLQLDDEETANIDTDTRVIEAEPTWISFSRPSRIEKSRRARKSSQTILEKEEATTSENSNLVSTDEPHLGGVLAAADVGGKQDATNYNSIFANRFAAFDELLSILKTKFACRVLFEETLVLPKVGRSRLHLCKDGSPRVIKAVGVQRNGSEFVLLEVDASDGVKMLSTKVLSGVDSETWRNDFEKIRRGVVKSSLNWPNSLFDQLYGQDGHRGVNHPKGLGELQVSREDMEGWAERVVREQFTH [F130A]	decreasing interaction
MVRLATFNDNVQVVHIGHLFRNSGHKEWRIFVWFNPMQERKWTRFTHLPLLSRAKVVNSTTKQINKADRVIEFEASDLQRAKIIDFPNLSSFASVRNKDGAQSSFIYEAETPYSKTRYHIPQLELARSLFAINSYFCRSCLSSTALQQEFDVQYEVERDHLEIRILPSSSFPKGALEQSAVVQLLVWLFSDQDVMDSYESIFRHYQQNREIKNGVESWCFSFDPPPMQGWKLHVKGRSSNEDKDYLVEEIVGLEINAMLPSTTAISHASFQEKEAGDGSTQHIAVSTESVVDDEHLQLDDEETANIDTDTRVIEAEPTWISFSRPSRIEKSRRARKSSQTILEKEEATTSENSNLVSTDEPHLGGVLAAADVGGKQDATNYNSIFANRFAAFDELLSILKTKFACRVLFEETLVLPKVGRSRLHLCKDGSPRVIKAVGVQRNGSEFVLLEVDASDGVKMLSTKVLSGVDSETWRNDFEKIRRGVVKSSLNWPNSLFDQLYGQDGHRGVNHPKGLGELQVSREDMEGWAERVVREQFTH [L131A]	decreasing interaction
MVRLATFNDNVQVVHIGHLFRNSGHKEWRIFVWFNPMQERKWTRFTHLPLLSRAKVVNSTTKQINKADRVIEFEASDLQRAKIIDFPNLSSFASVRNKDGAQSSFIYEAETPYSKTRYHIPALELARSLFLINSYFCRSCLSSTALQQEFDVQYEVERDHLEIRILPSSSFPKGALEQSAVVQLLVWLFSDQDVMDSYESIFRHYQQNREIKNGVESWCFSFDPPPMQGWKLHVKGRSSNEDKDYLVEEIVGLEINAMLPSTTAISHASFQEKEAGDGSTQHIAVSTESVVDDEHLQLDDEETANIDTDTRVIEAEPTWISFSRPSRIEKSRRARKSSQTILEKEEATTSENSNLVSTDEPHLGGVLAAADVGGKQDATNYNSIFANRFAAFDELLSILKTKFACRVLFEETLVLPKVGRSRLHLCKDGSPRVIKAVGVQRNGSEFVLLEVDASDGVKMLSTKVLSGVDSETWRNDFEKIRRGVVKSSLNWPNSLFDQLYGQDGHRGVNHPKGLGELQVSREDMEGWAERVVREQFTH [Q122A]	decreasing interaction
MVRLATFNDNVQVVHIGHLFRNSGHKEWRIFVWFNPMQERKWTRFTHLPLLSRAKVVNSTTKQINKADRVIEFEASDLQRAKIIDFPNLSSFASVRNKDGAQSSFIYEAETPYSKTRYHIPQLEAARSLFLINSYFCRSCLSSTALQQEFDVQYEVERDHLEIRILPSSSFPKGALEQSAVVQLLVWLFSDQDVMDSYESIFRHYQQNREIKNGVESWCFSFDPPPMQGWKLHVKGRSSNEDKDYLVEEIVGLEINAMLPSTTAISHASFQEKEAGDGSTQHIAVSTESVVDDEHLQLDDEETANIDTDTRVIEAEPTWISFSRPSRIEKSRRARKSSQTILEKEEATTSENSNLVSTDEPHLGGVLAAADVGGKQDATNYNSIFANRFAAFDELLSILKTKFACRVLFEETLVLPKVGRSRLHLCKDGSPRVIKAVGVQRNGSEFVLLEVDASDGVKMLSTKVLSGVDSETWRNDFEKIRRGVVKSSLNWPNSLFDQLYGQDGHRGVNHPKGLGELQVSREDMEGWAERVVREQFTH [L125A]	decreasing interaction
MVRLATFNDNVQVVHIGHLFRNSGHKEWRIFVWFNPMQERKWTRFTHLPLLSRAKVVNSTTKQINKADRVIEFEASDLQRAKIIDFPNLSSFASVRNKDGAQSSFIYEAETPYSKTRYHIPQLELARSAFLINSYFCRSCLSSTALQQEFDVQYEVERDHLEIRILPSSSFPKGALEQSAVVQLLVWLFSDQDVMDSYESIFRHYQQNREIKNGVESWCFSFDPPPMQGWKLHVKGRSSNEDKDYLVEEIVGLEINAMLPSTTAISHASFQEKEAGDGSTQHIAVSTESVVDDEHLQLDDEETANIDTDTRVIEAEPTWISFSRPSRIEKSRRARKSSQTILEKEEATTSENSNLVSTDEPHLGGVLAAADVGGKQDATNYNSIFANRFAAFDELLSILKTKFACRVLFEETLVLPKVGRSRLHLCKDGSPRVIKAVGVQRNGSEFVLLEVDASDGVKMLSTKVLSGVDSETWRNDFEKIRRGVVKSSLNWPNSLFDQLYGQDGHRGVNHPKGLGELQVSREDMEGWAERVVREQFTH [L129A]	decreasing interaction
MVRLATFNDNVQVVHIGHLFRNSGHKEWRIFVWFNPMQERKWTRFTHLPLLSRAKVVNSTTKQINKADRVIEFEASDLQRAKIIDFPNLSSFASVRNKDGAQSSFIYEAETPYSKTRYHIPQAELARSLFLINSYFCRSCLSSTALQQEFDVQYEVERDHLEIRILPSSSFPKGALEQSAVVQLLVWLFSDQDVMDSYESIFRHYQQNREIKNGVESWCFSFDPPPMQGWKLHVKGRSSNEDKDYLVEEIVGLEINAMLPSTTAISHASFQEKEAGDGSTQHIAVSTESVVDDEHLQLDDEETANIDTDTRVIEAEPTWISFSRPSRIEKSRRARKSSQTILEKEEATTSENSNLVSTDEPHLGGVLAAADVGGKQDATNYNSIFANRFAAFDELLSILKTKFACRVLFEETLVLPKVGRSRLHLCKDGSPRVIKAVGVQRNGSEFVLLEVDASDGVKMLSTKVLSGVDSETWRNDFEKIRRGVVKSSLNWPNSLFDQLYGQDGHRGVNHPKGLGELQVSREDMEGWAERVVREQFTH [L123A]	decreasing interaction

— IntAct's records for PubMed 19703395
